Experimental data taken from the supplement of paper PMC7125110.
± gives the standard error. For some assays here: Fewer inactive variants are shown than the library holds.

B1: glmS ribozyme (parent)
chain: AUAAAAGCGCCAGAACUACAGAAAUGUAGUUGACGAGGAGGAGGUUUAUCGAAUUUUCGGCGGAUGCCUCCAAA

How the values were obtained:
Conditions in all cases: with glucosamine-6-phosphate
glucosamine-6-phosphate [1] = variants of: B1; assay: kcat; higher = faster cleavage; RNA array
Procedure, shortened: (§1)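 Barcoded ribozyme variants on sequenced MiSeq chips were transcribed in situ by E. coli RNA polymerase and followed at 37 °C through a hybridised Cy3 probe. Glucosamine-6-phosphate at 40 μM to 10 mM in HEPES/KCl/Mg(OAc)2 buffer was flowed in, and tiles were imaged over ~14 h. Signals were normalised to baseline and to non-cleaving reference variants, and per-tile medians were fit to one- or two-exponential decays to give kobs. Weighted Michaelis–Menten fits across concentrations gave kcat and KM.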

glucosamine-6-phosphate [2] = variants of: B1; assay: self-cleavage kobs at 40 uM GlcN6P; higher = faster cleavage; RNA array
Procedure, shortened: as §1

glucosamine-6-phosphate [3] = variants of: B1; assay: self-cleavage kobs at 640 uM GlcN6P; higher = faster cleavage; RNA array
Procedure, shortened: as §1

glucosamine-6-phosphate [4] = variants of: B1; assay: self-cleavage kobs at 2500 uM GlcN6P; higher = faster cleavage; RNA array
Procedure, shortened: as §1

glucosamine-6-phosphate [5] = variants of: B1; assay: self-cleavage kobs at 10000 uM GlcN6P; higher = faster cleavage; RNA array
Procedure, shortened: as §1

glucosamine-6-phosphate [6] = variants of: B1; assay: KM; higher = weaker cofactor use; RNA array
Procedure, shortened: as §1

glucosamine-6-phosphate [7] = variants of: B1; assay: self-cleavage kobs at 160 uM GlcN6P; higher = faster cleavage; RNA array
Procedure, shortened: as §1

Variant	kcat (glucosamine-6-phosphate [1])	self-cleavage kobs at 40 uM GlcN6P (glucosamine-6-phosphate [2])	self-cleavage kobs at 640 uM GlcN6P (glucosamine-6-phosphate [3])	self-cleavage kobs at 2500 uM GlcN6P (glucosamine-6-phosphate [4])	self-cleavage kobs at 10000 uM GlcN6P (glucosamine-6-phosphate [5])	KM (glucosamine-6-phosphate [6])	self-cleavage kobs at 160 uM GlcN6P (glucosamine-6-phosphate [7])
AUAAAAGCGCCAGAACUACAGAAAUGUAGUUGACGAGGAGGAGGUUCAUCGAAUUUUCGGCGGAUGCCACCAAA [U47C U69A]	0.000275 ± 6.6e-05 s⁻¹	2.9e-05 ± 1.4e-05 s⁻¹	5.97e-05 ± 2.2e-05 s⁻¹	0.000178 ± 5.8e-05 s⁻¹	0.00023 ± 3.1e-05 s⁻¹	–	–
AUAAAAGCGCCAGAACUACAGAAAUGUAGUUGACGAGGAGGAGGUUGAUCGGAUUUUCGGCGGAUGCCUCCAAA [U47G A52G]	0.000681 ± 0.00017 s⁻¹	–	0.00017 ± 2.3e-05 s⁻¹	0.000443 ± 6.8e-05 s⁻¹	0.000619 ± 0.00013 s⁻¹	1570 ± 620 µM	8.74e-05 ± 1.5e-05 s⁻¹
AUAAAAGCGCCAGAACUACAGAAAUGUAGUUGACGAGGAGGAGGUUGAUCGCAUUUUCGGCGGAUGCCUCCAAA [U47G A52C]	1.4e-05 ± 1.8e-06 s⁻¹	–	–	–	–	–	–
AUAAAAGCGCCAGAACUACAGAAAUGUAGUUGACGAGGAGGAGGUUGAUCGAAUUUUAGGCGGAUGCCUCCAAA [U47G C58A]	0.000264 ± 4e-05 s⁻¹	–	5.5e-05 ± 1.2e-05 s⁻¹	0.000177 ± 4.2e-05 s⁻¹	0.000208 ± 3.2e-05 s⁻¹	2260 ± 690 µM	–
AUAAAAGCGCCAGAACUACAGAAAUGUAGUUGACGAGGAGGAGGUUGAUCGAAUUUUCGGCGGAUGCCUCCAAA [U47G]	0.0175 ± 0.00086 s⁻¹	0.000326 ± 7.1e-06 s⁻¹	0.00389 ± 0.00017 s⁻¹	0.00997 ± 0.00041 s⁻¹	0.0142 ± 0.00058 s⁻¹	2130 ± 130 µM	0.00112 ± 9.8e-05 s⁻¹
AUAAAAGCGCCAGAACUACAGAAAUGUAGUUGACGAGGAGGAGGUUGAUGGAAUUUUCGGCGGAUGCUUCCAAA [U47G C50G C68U]	6.02e-05 ± 2e-05 s⁻¹	–	–	7.59e-05 ± 1.6e-05 s⁻¹	3.03e-05 ± 1.3e-05 s⁻¹	–	7.17e-05 ± 9.5e-06 s⁻¹
AUAAAAGCGCCAGAACUACAGAAAUGUAGUUGACGAGGAGGAGGUUCAUCGAAUUUACGGCGGAUGCCUCCAAA [U47C U57A]	0.000495 ± 0.00012 s⁻¹	–	–	2.94e-05 ± 1.3e-05 s⁻¹	0.0001 ± 2.7e-05 s⁻¹	–	–
AUAAAAGCGCCAGAACUACAGAAAUGUAGUUGACGAGGAGGAGGUUGUUCGAAUUUUCGGCGGAUGCCUCCAAA [U47G A48U]	0.000199 ± 1.8e-05 s⁻¹	–	8.89e-05 ± 1.5e-05 s⁻¹	0.000128 ± 2e-05 s⁻¹	0.000196 ± 2.4e-05 s⁻¹	905 ± 230 µM	3.01e-05 ± 1.4e-05 s⁻¹
AUAAAAGCGCCAGAACUACAGAAAUGUAGUUGACGAGGAGGAGGUUGGUCGAAUUUUCGGCGGAUGCCUCCAAA [U47G A48G]	8.61e-05 ± 8.6e-06 s⁻¹	–	4.31e-05 ± 1.6e-05 s⁻¹	8.59e-05 ± 1.7e-05 s⁻¹	7.67e-05 ± 1.3e-05 s⁻¹	–	–
